Experimental data reported in paper doi:10.1101/2022.03.29.486248 (bioRxiv, 2022).
One block for each binder: values may come before it.

Target: T1, SufB (subunit of the His6-SufBC2D complex, wild type) (Escherichia coli, UniProt P77522 1-495)
T1 sequence: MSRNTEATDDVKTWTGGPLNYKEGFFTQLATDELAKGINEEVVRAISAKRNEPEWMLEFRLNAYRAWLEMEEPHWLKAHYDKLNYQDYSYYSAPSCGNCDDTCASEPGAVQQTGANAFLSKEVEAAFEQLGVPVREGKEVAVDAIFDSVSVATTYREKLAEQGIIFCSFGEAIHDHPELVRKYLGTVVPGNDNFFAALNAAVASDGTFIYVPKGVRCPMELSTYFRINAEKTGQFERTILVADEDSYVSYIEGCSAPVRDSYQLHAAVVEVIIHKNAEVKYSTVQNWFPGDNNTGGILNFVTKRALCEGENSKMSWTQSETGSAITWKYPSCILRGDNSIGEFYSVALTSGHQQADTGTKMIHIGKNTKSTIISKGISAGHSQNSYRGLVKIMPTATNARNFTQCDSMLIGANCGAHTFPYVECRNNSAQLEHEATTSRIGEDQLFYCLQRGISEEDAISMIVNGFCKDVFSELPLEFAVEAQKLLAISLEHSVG
Experiment: SEC-MALS

- stoichiometry N: 1
B1: SufD (subunit of the SufBC2D complex, wild type) (natural protein, Escherichia coli)
chain: MAGLPNSSNALQQWHHLFEAEGTKRSPQAQQHLQQLLRTGLPTRKHENWKYTPLEGLINSQFVSIAGEISPQQRDALALTLDSVRLVFVDGRYVPALSDATEGSGYEVSINDDRQGLPDAIQAEVFLHLTESLAQSVTHIAVKRGQRPAKPLLLMHITQGVAGEEVNTAHYRHHLDLAEGAEATVIEHFVSLNDARHFTGARFTINVAANAHLQHIKLAFENPLSHHFAHNDLLLAEDATAFSHSFLLGGAVLRHNTSTQLNGENSTLRINSLAMPVKNEVCDTRTWLEHNKGFCNSRQLHKTIVSDKGRAVFNGLINVAQHAIKTDGQMTNNNLLMGKLAEVDTKPQLEIYADDVKCSHGATVGRIDDEQIFYLRSRGINQQDAQQMIIYAFAAELTEALRDEGLKQQVLARIGQRLPGGAR

- stoichiometry N: 2
B2: SufC (subunit of the SufBC2D complex) (natural protein, Escherichia coli)
chain: MLSIKDLHVSVEDKAILRGLSLDVHPGEVHAIMGPNGSGKSTLSATLAGREDYEVTGGTVEFKGKDLLALSPEDRAGEGIFMAFQYPVEIPGVSNQFFLQTALNAVRSYRGQETLDRFDFQDLMEEKIALLKMPEDLLTRSVNVGFSGGEKKRNDILQMAVLEPELCILDESDSGLDIDALKVVADGVNSLRDGKRSFIIVTHYQRILDYIKPDYVHVLYQGRIVKSGDFTLVKQLEEQGYGWLTEQQ
